The values below come from patent US10973880B2, “Compositions and methods for treating pulmonary hypertension” (Acceleron Pharma Inc., priority 2016, dated 2021).

As a reminder, the Kd is the constant that tells how readily two partners part at equilibrium. Read a high Kd as weaker binding.

Data set [1] concerns the target T1, activin B (Homo sapiens, UniProt P09529).
T1 sequence (P09529 293-407): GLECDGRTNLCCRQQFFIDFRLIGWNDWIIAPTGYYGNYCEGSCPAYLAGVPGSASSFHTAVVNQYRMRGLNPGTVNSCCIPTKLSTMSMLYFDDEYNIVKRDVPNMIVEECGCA
Put plainly: similar binding assay (Biacore). Particulars: CHO-cell-expressed material. In general terms: In SPR one partner is held on a chip, and binding of the other changes the refractive index at the surface.

Data set [2] can be described thus: pharmacokinetic studies in rats. The class given is in vivo, rat. The conditions noted are these: initial administration 30 mg/kg. As for the experimental part: The ActRIIA-hFc was very stable in pharmacokinetic studies. Rats were dosed with 1 mg/kg, 3 mg/kg, or 10 mg/kg of ActRIIA-hFc protein, and plasma levels of the protein were measured at 24, 48, 72, 144 and 168 hours. In a separate study, rats were dosed at 1 mg/kg, 10 mg/kg, or 30 mg/kg.

A short description of data set [3]: pharmacokinetics in cynomolgus monkeys. The class given is in vivo, cynomolgus monkey. The conditions noted are these: initial administration 10 mg/kg.
Data set [4] concerns the target T2, activin A (Homo sapiens, UniProt P08476).
T2 sequence (P08476 311-426): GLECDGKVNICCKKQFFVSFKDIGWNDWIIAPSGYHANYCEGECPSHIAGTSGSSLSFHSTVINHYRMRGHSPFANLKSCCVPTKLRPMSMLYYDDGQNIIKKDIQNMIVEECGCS
The experiment in a line: A-204 reporter gene assay, pGL3(CAGA)12 luciferase. The class given is cell-based. The text has this: An A-204 reporter gene assay was used to evaluate the effects of ActRIIB-Fc proteins and GDF traps on signaling by GDF-11 and activin A. Cell line: human rhabdomyosarcoma (derived from muscle). Reporter vector: pGL3(CAGA)12 (described in Dennler et al, 1998, EMBO 17: 3091-3100). The CAGA12 motif is present in TGF-beta responsive genes (e.g., PAI-1 gene), so this vector is of general use for factors signaling through SMAD2 and 3.
Day 1: Split A-204 cells into 48-well plate.
Day 2: A-204 cells transfected with 10 ug pGL3(CAGA)12 or pGL3(CAGA)12(10 ug)+pRLCMV (1 μg) and Fugene.
Day 3: Add factors (diluted into medium+0.1% BSA). Inhibitors need to be preincubated with factors for 1 hr before adding to cells. Six hrs later, cells were rinsed with PBS and lysed.
This is followed by a luciferase assay.
(§1) In addition, an A-204 Reporter Gene Assay was used to evaluate the effects of ALK4-Fc:ActRIIB-Fc heterodimer and ActRIIB-Fc:ActRIIB-Fc homodimer on signaling by activin A, activin B, GDF11, GDF8, BMP10, and BMP9. Cell line: Human Rhabdomyosarcoma (derived from muscle). Reporter vector: pGL3(CAGA)12 (as described in Dennler et al, 1998, EMBO 17: 3091-3100). The CAGA12 motif is present in TGFβ responsive genes (PAI-1 gene), so this vector is of general use for factors signaling through Smad2 and 3. An exemplary A-204 Reporter Gene Assay is outlined below. • Day 1: Split A-204 cells into 48-well plate. • Day 2: A-204 cells transfected with 10 ug pGL3(CAGA)12 or pGL3(CAGA)12(10 ug)+pRLCMV (1 ug) and Fugene. • Day 3: Add factors (diluted into medium+0.1% BSA). Inhibitors need to be pre-incubated with Factors for about one hr before adding to cells. About six hrs later, cells are rinsed with PBS and then lysed.
(§2) Following the above steps, a Luciferase assay was performed.
A general note: A reporter such as luciferase makes a cellular process visible.

Data set [5] deals with T3, GDF11 (Homo sapiens, UniProt O95390).
T3 sequence (O95390 299-407): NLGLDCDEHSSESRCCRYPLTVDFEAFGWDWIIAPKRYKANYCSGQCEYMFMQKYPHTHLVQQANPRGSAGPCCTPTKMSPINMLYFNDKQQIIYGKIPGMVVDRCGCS
Put plainly: A-204 reporter gene assay, pGL3(CAGA)12 luciferase. The class given is cell-based.
Text: (§3) Day 1: Split A-204 cells into 48-well plate. […]
as §1, §2

Data set [6] addresses T4, BMP10 (Homo sapiens, UniProt O95393).
T4 sequence (O95393 317-424): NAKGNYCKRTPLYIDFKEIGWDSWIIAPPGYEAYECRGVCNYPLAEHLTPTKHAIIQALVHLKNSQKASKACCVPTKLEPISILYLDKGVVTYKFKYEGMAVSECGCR
Put plainly: Biacore-based binding assay, receptor captured with anti-Fc antibody. On the procedure:
(§4) A Biacore™-based binding assay was used to compare ligand binding selectivity of the ALK4-Fc:ActRIIB-Fc heterodimeric complex described above with that of ActRIIB-Fc and ALK4-Fc homodimer complexes. The ALK4-Fc:ActRIIB-Fc heterodimer, ActRIIB-Fc homodimer, and ALK4-Fc homodimer were independently captured onto the system using an anti-Fc antibody. Ligands were injected and allowed to flow over the captured receptor protein. Results are summarized in the table below, in which ligand off-rates (kd) most indicative of effective ligand traps are denoted in bold font.

Data set [7] has as its target T5, BMP6 (Homo sapiens, UniProt P22004).
T5 sequence (P22004 375-513): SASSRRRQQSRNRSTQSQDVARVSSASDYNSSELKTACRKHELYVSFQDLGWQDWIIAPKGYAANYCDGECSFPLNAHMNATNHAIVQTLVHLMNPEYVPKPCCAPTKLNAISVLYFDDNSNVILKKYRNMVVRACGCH
Described as above. As for the experimental part: as §4

Data set [8] has as its target T6, BMP9 (Homo sapiens, UniProt Q9UK05).
T6 sequence (Q9UK05 320-429): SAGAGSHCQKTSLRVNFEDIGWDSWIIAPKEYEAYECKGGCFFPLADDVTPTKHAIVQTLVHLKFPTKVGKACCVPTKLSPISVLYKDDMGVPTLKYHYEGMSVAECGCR
Described as above. As for the experimental part:
as §4

Data set [9] concerns the target T3, GDF11. The data set is described as above. On the procedure:
as §4

Data set [10] deals with T7, GDF3 (Homo sapiens, UniProt Q9NR23).
T7 sequence (Q9NR23 251-364): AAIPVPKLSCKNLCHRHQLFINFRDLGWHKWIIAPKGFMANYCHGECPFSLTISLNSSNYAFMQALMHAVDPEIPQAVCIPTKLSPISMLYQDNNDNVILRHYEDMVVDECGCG
The description is as above. On the procedure:
as §4

Data set [11] addresses T8, GDF8 (Homo sapiens, UniProt O14793).
T8 sequence (O14793 267-375): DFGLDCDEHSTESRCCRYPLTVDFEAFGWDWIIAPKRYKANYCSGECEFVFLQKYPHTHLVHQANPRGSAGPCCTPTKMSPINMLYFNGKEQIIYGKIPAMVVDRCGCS
The description is as above. On the procedure:
as §4

Data set [12] has as its target T2, activin A. Described as above. On the procedure:
as §4

The target in data set [13] is T1, activin B. The description is as above. As for the experimental part: as §4
In data set [14] the target is T8, GDF8. Put plainly: A-204 reporter gene assay, pGL3(CAGA)12 luciferase. It counts as cell-based. More on the design: host or cells: exogenous factor added to A-204 cells (human rhabdomyosarcoma).
Text: as §3, §1, §2

In data set [15] the target is T1, activin B. Put plainly: A-204 reporter gene assay, pGL3(CAGA)12 luciferase. The class given is cell-based. More on the design: host or cells: exogenous factor added to A-204 cells (human rhabdomyosarcoma). Particulars: Example 13.
Text: as §1, §2

The target of data set [16] is T3, GDF11. Put plainly: Biacore assay, receptor captured with anti-hFc antibody. The class given is binding. As for the experimental part: (§5) Binding of certain ActRIIB-Fc proteins and GDF traps to ligands was tested in a Biacore assay.
(§6) The ActRIIB-Fc variants or wild-type protein were captured onto the system using an anti-hFc antibody. Ligands were injected and flowed over the captured receptor proteins.

Data set [17] has as its target T8, GDF8. Described as above. It counts as binding. As for the experimental part: as §5, §6
Data set [18] concerns the target T2, activin A. Described as above. It counts as binding. On the procedure: as §5, §6
Data set [19] relates to activin. Put plainly: ActRIIB-Fc affinity for ligand (description). It counts as binding. The conditions noted are these: ascertained by Applicants.
The target in data set [20] is T3, GDF11. The experiment in a line: ActRIIB-Fc affinity for ligand (description). The class given is binding. The conditions noted are these: ascertained by Applicants.
Data set [21] deals with activin. Particulars: see U.S. Pat. No. 7,842,663; cited from earlier work.
Data set [22] has as its target T3, GDF11. The conditions noted are these: see U.S. Pat. No. 7,842,663; cited from earlier work.

Turning to “ActRIIA-hFc: extracellular domain of human ActRIIa fused to a human Fc domain with a minimal linker (SEQ ID NO: 32); homodimer”, the “affinity for activin B ligand compared with that reported for ActRIIa-hFc expressed in human 293 cells” value in data set [1] is “higher affinity”. In data set [2], the “circulating levels of the drug after two weeks” value was found to be 30 µg/mL. For the same molecule, in [3], the “circulating levels of the drug” value came to 30 µg/mL.

B1: ActRIIB-Fc homodimer: homodimer complex of ActRIIB-Fc fusion polypeptide (protein)
chain: GRGEAETRECIYYNANWELERTNQSGLERCEGEQDKRLHCYASWRNSSGTIELVKKGCWLDDFNCYDRQECVATEENPQVYFCCCEGNFCNERFTHLPEAGGPEVTYEPPPTAPT
modifications: left off: a dimerising Fc or GST
notes: homodimer complex of ActRIIB-Fc fusion polypeptide
On to B1, for which, in data set [4] (Example 13), the “inhibition of activin A signaling” value is given as “potent inhibitors”. In data set [5] (Example 13), the “inhibition of GDF11 signaling” value is “potent inhibitors”. Further, in data set [6], the dissociation constant (Kd) amounted to 0.011 nM; the “ka, BMP10” value is 2.3e+07 M⁻¹ s⁻¹; the “kd, BMP10” value was determined as 0.00026 s⁻¹. In addition, in data set [7], the “ka, BMP6” value worked out at 3.2e+07 M⁻¹ s⁻¹ and the “kd, BMP6” value amounted to 0.0068 s⁻¹. In data set [8], the Kd worked out at 0.077 nM; the “ka, BMP9” value was determined as 1.4e+07 M⁻¹ s⁻¹; the “kd, BMP9” value came to 0.0011 s⁻¹. Further, in data set [9], the “ka, GDF11” value was 5e+07 M⁻¹ s⁻¹ and the “kd, GDF11” value is 0.00011 s⁻¹. Further, in data set [9] († = very low signal), binding was put at a Kd of 0.002 nM. In addition, in data set [10], the Kd was found to be 1.5 nM; the “ka, GDF3” value amounted to 1.4e+06 M⁻¹ s⁻¹; the “kd, GDF3” value is 0.0022 s⁻¹. Also, in [11], the “ka, GDF8” value amounted to 830000 M⁻¹ s⁻¹ and the “kd, GDF8” value came out at 0.00023 s⁻¹. The equilibrium dissociation constant (Kd) in data set [11] († = very low signal) is 0.28 nM. Besides, in [12], the “ka, Activin A” value turned out to be 1.2e+07 M⁻¹ s⁻¹ and the “kd, Activin A” value came out at 0.00023 s⁻¹. In addition, in data set [13], the “ka, Activin B” value stood at 5.1e+06 M⁻¹ s⁻¹ and the “kd, Activin B” value turned out to be 0.0001 s⁻¹. Moreover, the “inhibition of GDF8 signaling” value in [14] (Example 13) is given as “potent inhibitors”. In addition, the “inhibition of activin B signaling” value in data set [15] was “potent inhibitors”.

B2: ActRIIB(20-134)-hFc: extracellular domain of human ActRIIB (20-134, R64) fused to a human Fc domain with a minimal linker (SEQ ID NO: 40) (protein)
chain: GRGEAETRECIYYNANWELERTNQSGLERCEGEQDKRLHCYASWRNSSGTIELVKKGCWLDDFNCYDRQECVATEENPQVYFCCCEGNFCNERFTHLPEAGGPEVTYEPPPTAPTGGGTHTCPPCPAPELLGGPSVFLFPPKPKDTLMISRTPEVTCVVVDVSHEDPEVKFNWYVDGVEVHNAKTKPREEQYNSTYRVVSVLTVLHQDWLNGKEYKCKVSNKALPVPIEKTISKAKGQPREPQVYTLPPSREEMTKNQVSLTCLVKGFYPSDIAVEWESNGQPENNYKTTPPVLDSDGSFFLYSKLTVDKSRWQQGNVFSCSVMHEALHNHYTQKSLSLSPGK
On to B2, for which the “inhibition of activin A activity” value in data set [4] (A-204 reporter gene assay) is on record as “potent inhibitor”. Moreover, the “inhibition of GDF-11 activity” value in data set [5] (A-204 reporter gene assay) is “potent inhibitor”. Besides, the “Koff, GDF11” value in [16] amounted to 0.000113 s⁻¹. Besides, in data set [17], the “Koff, GDF8” value was found to be 3.45e-05 s⁻¹. Also, in [18], the “Koff, Activin A” value is 0.000159 s⁻¹ and the “Kon, Activin A” value came to 5.94e+06 M⁻¹ s⁻¹. Also, in data set [19], the affinity for activin result is given as “low nanomolar to high picomolar range”. Further, the “affinity for GDF11” value in data set [20] is “low nanomolar to high picomolar range”. Also, the “inhibition of GDF-8 activity” value in data set [14] (A-204 reporter gene assay) was “potent inhibitor”.

B3: ActRIIB(20-119)-Fc: ActRIIB-Fc fusion protein containing amino acids 20-119 of SEQ ID NO: 1 (protein)
chain: GRGEAETRECIYYNANWELERTNQSGLERCEGEQDKRLHCYASWRNSSGTIELVKKGCWLDDFNCYDRQECVATEENPQVYFCCCEGNFCNERFTHLPEA
modifications: Fc fusion, Fc no entry
For the molecule B3, the “binding to activin relative to ActRIIB(20-134)-Fc” value in data set [21] is reported as “reduced binding”. Further, the “binding to GDF11 relative to ActRIIB(20-134)-Fc” value in [22] is on record as “reduced binding”.
